Measurements published in paper PMC7031079, “ATBS1-INTERACTING FACTOR 2 negatively regulates dark- and brassinosteroid-induced leaf senescence through interactions with INDUCER OF CBF EXPRESSION 1” (Journal of Experimental Botany, 2019).

Molecular target: T1, ICE1FL-myc (Arabidopsis thaliana, UniProt Q9LSE2 1-494)
T1 sequence (looked up): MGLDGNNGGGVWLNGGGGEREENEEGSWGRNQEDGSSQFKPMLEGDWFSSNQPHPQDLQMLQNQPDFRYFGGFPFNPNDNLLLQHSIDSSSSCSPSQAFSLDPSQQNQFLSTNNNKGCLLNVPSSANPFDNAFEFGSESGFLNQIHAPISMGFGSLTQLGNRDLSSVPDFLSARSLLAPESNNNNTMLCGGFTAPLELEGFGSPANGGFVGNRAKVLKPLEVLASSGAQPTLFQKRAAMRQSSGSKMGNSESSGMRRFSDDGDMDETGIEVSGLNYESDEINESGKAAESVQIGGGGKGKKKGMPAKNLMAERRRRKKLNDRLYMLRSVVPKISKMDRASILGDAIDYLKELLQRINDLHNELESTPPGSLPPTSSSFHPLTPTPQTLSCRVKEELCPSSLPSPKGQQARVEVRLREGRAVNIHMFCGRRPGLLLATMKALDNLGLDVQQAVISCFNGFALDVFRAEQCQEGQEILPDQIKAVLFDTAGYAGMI
Assay: cell-based or functional assay

- pCBF2::Luc reporter expression in tobacco leaves on co-expression of full-length AIF2 (p35S::AIF2FL-EGFP) and ICE1 (p35S::ICE1FL-EGFP), against the non-transformed mock control: ~5 fold
B1: AIF2FL-nYFP (natural protein, Arabidopsis thaliana, UniProt Q9C8Z9 1-221, looked up)
chain: MASLISDIEPPTSTTSDLVRRKKRSSASSAASSRSSASSVSGEIHARWRSEKQQRIYSAKLFQALQQVRLNSSASTSSSPTAQKRGKAVREAADRALAVSARGRTLWSRAILANRIKLKFRKQRRPRATMAIPAMTTVVSSSSNRSRKRRVSVLRLNKKSIPDVNRKVRVLGRLVPGCGKQSVPVILEEATDYIQALEMQVRAMNSLVQLLSSYGSAPPPI
